PMC4800418, “A two-component system regulates gene expression of the type IX secretion component proteins via an ECF sigma factor” (Scientific Reports, 2016)

Key:
[1] = molecular target: T1, rSigP (ECF sigma factor) (Porphyromonas gingivalis ATCC 33277) (UniProt B2RHE8); experiment: EMSA
T1 sequence: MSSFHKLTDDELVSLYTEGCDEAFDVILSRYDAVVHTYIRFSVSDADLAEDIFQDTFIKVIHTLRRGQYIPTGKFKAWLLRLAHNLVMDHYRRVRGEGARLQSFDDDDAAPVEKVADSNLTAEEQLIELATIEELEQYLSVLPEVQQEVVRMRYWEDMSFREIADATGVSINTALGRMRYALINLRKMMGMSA

recombinant PorX (rPorX) [2] = molecular target: T2, recombinant PorX (rPorX) (Porphyromonas gingivalis ATCC 33277, UniProt B2RJJ3 1-518); experiment: SPR; settings: both partners purified
T2 construct: also called PGN_1019; source: E. coli BL21(DE3), purified (Ni-NTA agarose)
T2 sequence: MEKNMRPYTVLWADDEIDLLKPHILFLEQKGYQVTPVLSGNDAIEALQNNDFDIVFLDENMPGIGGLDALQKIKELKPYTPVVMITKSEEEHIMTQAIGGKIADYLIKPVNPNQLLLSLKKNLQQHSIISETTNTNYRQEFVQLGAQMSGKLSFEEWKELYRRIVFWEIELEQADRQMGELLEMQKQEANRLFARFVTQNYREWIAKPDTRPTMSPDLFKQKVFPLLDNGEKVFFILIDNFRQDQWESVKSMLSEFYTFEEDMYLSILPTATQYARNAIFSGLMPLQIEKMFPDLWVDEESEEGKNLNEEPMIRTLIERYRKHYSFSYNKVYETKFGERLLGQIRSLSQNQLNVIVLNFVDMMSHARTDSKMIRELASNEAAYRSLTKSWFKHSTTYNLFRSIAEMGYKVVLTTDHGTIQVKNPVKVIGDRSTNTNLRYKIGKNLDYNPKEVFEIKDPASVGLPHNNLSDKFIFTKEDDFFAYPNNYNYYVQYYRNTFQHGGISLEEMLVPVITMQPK

recombinant PorX (rPorX) [3] = molecular target: T3, recombinant PorX (rPorX) (Porphyromonas gingivalis ATCC 33277, UniProt B2RJJ3 1-518); experiment: SPR
T3 chain: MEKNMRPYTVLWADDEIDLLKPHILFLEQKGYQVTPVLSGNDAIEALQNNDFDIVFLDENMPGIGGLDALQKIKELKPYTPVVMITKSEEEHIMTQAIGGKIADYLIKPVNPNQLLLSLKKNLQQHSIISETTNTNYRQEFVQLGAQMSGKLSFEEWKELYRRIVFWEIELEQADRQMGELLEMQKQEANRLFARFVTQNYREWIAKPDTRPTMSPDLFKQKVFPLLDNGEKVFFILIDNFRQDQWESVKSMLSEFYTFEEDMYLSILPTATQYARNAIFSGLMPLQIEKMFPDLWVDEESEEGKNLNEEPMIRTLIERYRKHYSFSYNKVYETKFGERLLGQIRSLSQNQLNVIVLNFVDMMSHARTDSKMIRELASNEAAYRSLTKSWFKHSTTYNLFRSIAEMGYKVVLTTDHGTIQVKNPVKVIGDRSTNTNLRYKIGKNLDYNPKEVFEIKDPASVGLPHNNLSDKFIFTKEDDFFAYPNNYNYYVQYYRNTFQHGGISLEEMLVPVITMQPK

| Molecule | binding [1] | Kd (recombinant PorX (rPorX) [2]) [nM] | koff (recombinant PorX (rPorX) [3]) [s⁻¹] |
| --- | --- | --- | --- |
| ACATTATTTATATATCTGCTTCGCTGCTCTCCCCGAATCCTGCGCTAAGGCAGTTTTCAGAGGAAACGAATGCTTTTATACTTTGCATCTCTATTCTTCGTATTGCTCAATGGGAAAGAA (double strand) [porK 5'-adjacent region probe] | no binding |  |  |
| ATAATTATTGTTGTGAGGTAGGTTATGCAAATCTACGAACGAGATGTTCTAAATACCGATTCGCGCAAAAATACAATATCTTTGCTGCATAAGGCGTTGA (double strand) [porT promoter probe] | binds |  |  |
| ATTTCGTTCGTTTTGTTTTGTATTCTTATCGGGGTCTATGAATATTCAATATCGTAAACGGCAGAACTGCTTCGGCTATTGTGCTACCACGATCATTTTCTTGGCCATGGAGGCCGTCTG (double strand) [porV promoter probe] | binds |  |  |
| GCAAAGAGGATTTTTTCTTCAACGAAGAAGAGTACTGATAATGTAATCTCCTTAAGCGAATATGCCCCGGATGTGCAATAATAGCACTCGGGGCTTCGTTTTACCACCGTGGCATCAGTC (double strand) [porP promoter probe] | binds |  |  |
| GGCTATACGCAAAGCAGTCAAGTCCATTCTCTCCGAGGATTCGTCCTTAGCTGTCGAAGATATTATCAAGCGAGCATTACGAATGTTATAACCTTTTCTC (double strand) [sov 5'-adjacent region probe] | no binding |  |  |
| TTAGTGACTGAAATGCGATTGCCCTGTTACAAACGGACTTGATACAACATTTTCCCTACTTTTGCGTTAGTTTCCTATAGTAATAAACAACACTATGGTG (double strand) [ruvA promoter probe] | binds |  |  |
| recombinant SigP (rSigP) (natural protein, source: E. coli BL21(DE3), purified (Ni-NTA agarose)) MSSFHKLTDDELVSLYTEGCDEAFDVILSRYDAVVHTYIRFSVSDADLAEDIFQDTFIKVIHTLRRGQYIPTGKFKAWLLRLAHNLVMDHYRRVRGEGARLQSFDDDDAAPVEKVADSNLTAEEQLIELATIEELEQYLSVLPEVQQEVVRMRYWEDMSFREIADATGVSINTALGRMRYALINLRKMMGMSA |  | 78.3 | 0.000529 |
